# T1: Mammaglobin B (MGB2), recombinant (UniProt O75556 19-95)
# T1 sequence: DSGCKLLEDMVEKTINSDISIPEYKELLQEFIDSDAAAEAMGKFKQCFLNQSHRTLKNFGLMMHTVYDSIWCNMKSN
# B1: MAMB1 (ssDNA)
# DNA: CATGCTTACCTATAGTGAACCCAACGTCGAACTGAATCCCGTGTCCTTTGAGAACTGACTCATAC
# B2: MAMA2 (ssDNA)
# DNA: CATGCTTACCTATAGTGAACCCGGGACAGAACGTGCGCTTTGAGCTTTGAGAACTGACTCATAC
# Experiments:
# [1] = target: T1, Mammaglobin B (MGB2), recombinant; test: EMSA; aptamer 600 nM, protein 0-220 nM; unit implied by nM axis; EMSA: 50 mM Tris-HCl, 10 mM reduced glutathione, pH 8.0, 1 h at 37 C, 8% native PAGE; transfected-cell flow cytometry: PBS, 5 mM MgCl2, 4 C, 30 min, formaldehyde-fixed cells; conditions: tags: GST (stated for the SELEX protein)
# [2] = target: Mammaglobin A (MGB1), recombinant (UniProt Q13296 19-93); test: as above; conditions: tags: GST (stated for the SELEX protein)
# Chain of Mammaglobin A (MGB1), recombinant (Q13296 19-93): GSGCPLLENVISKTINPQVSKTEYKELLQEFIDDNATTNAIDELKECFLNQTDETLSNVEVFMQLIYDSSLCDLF
Binder,Kd [1],Kd [2]
B1,95 ± 7 nM,
B2,,88 ± 6 nM

# — PMC5670216, “In vitro selections of mammaglobin A and mammaglobin B aptamers for the recognition of circulating breast tumor cells”
